One block for each molecule: values may come before it.
Tests used:
[1] = target: T1, MYORG (myogenesis-regulating glycosidase) (Homo sapiens, UniProt Q6NSJ0); assay: ITC; crystal structure ([…] Å soak); thermal shift (ΔTm […] °C); inhibition of 4MU-Gal hydrolysis; assay type: binding; design: residues 80–714 (MYORGGH31)
T1 sequence (Q6NSJ0 80-714): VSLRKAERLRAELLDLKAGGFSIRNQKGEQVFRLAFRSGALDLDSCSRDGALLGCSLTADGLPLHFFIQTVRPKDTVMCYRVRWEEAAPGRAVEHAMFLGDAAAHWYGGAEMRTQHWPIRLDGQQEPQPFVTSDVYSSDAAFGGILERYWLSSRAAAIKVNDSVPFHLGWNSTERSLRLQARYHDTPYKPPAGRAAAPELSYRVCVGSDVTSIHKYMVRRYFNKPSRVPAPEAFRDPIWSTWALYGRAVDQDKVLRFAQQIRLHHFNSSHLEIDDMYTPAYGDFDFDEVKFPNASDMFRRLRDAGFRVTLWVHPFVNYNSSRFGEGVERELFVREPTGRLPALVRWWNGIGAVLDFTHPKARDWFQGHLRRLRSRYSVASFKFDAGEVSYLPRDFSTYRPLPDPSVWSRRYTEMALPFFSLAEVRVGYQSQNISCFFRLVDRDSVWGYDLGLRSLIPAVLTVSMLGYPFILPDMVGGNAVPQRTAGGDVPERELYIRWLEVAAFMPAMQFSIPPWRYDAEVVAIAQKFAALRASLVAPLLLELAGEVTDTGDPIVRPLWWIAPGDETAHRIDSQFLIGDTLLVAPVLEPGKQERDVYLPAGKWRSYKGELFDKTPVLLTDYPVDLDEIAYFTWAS

[2] = target: T1, MYORG (myogenesis-regulating glycosidase)
[3] = target: myogenesis-regulating glycosidase (MYORG) residues 80-714, deglycosylated with EndoH (human); assay: SEC-MALS; SEC-MALLS; Superdex S200 10/300 GL in 20 mM HEPES (pH 7.5), 200 mM NaCl; ambient temperature; 100 ul of 3 mg/ml MYORG injected; 0.5 ml/min
[4] = target: myogenesis-regulating glycosidase (MYORG) residues 80-714, glycosylated (human); assay: as above
[5] = substrate: OC[C@H]1O[C@H](O[C@H]2[C@H](O)[C@@H](O)C(O)O[C@@H]2CO)[C@H](O)[C@@H](O)[C@H]1O; assay: Michaelis–Menten kinetics with purified enzyme (glucose oxidase/HRP paired-enzyme assay); KM; assay type: biochemical, Homo sapiens; conditions: active site, −[…] and +[…] subsites

Molecule: OC[C@H]1NC[C@H](O)[C@@H](O)[C@H]1O [DGJ, deoxygalactonojirimycin]
- Kd [1]: 1330 ± 450 nM

- fluorogenic hydrolysis by purified enzyme; kcat/KM [2]: 7.247 ± 0.0637 M⁻¹ s⁻¹
Molecule: Cc1cc(=O)oc2cc(O[C@H]3O[C@H](CO)[C@H](O)[C@H](O)[C@H]3O)ccc12 [4MU-Gal]

- stoichiometry N [3]: 2
Molecule: myogenesis-regulating glycosidase (MYORG) residues 80-714, deglycosylated with EndoH (domain or fragment)

- stoichiometry N [4]: 2
Molecule: myogenesis-regulating glycosidase (MYORG) residues 80-714, glycosylated (domain or fragment)

B1: MYORG (myogenesis-regulating glycosidase) (Homo sapiens) (protein)
chain: VSLRKAERLRAELLDLKAGGFSIRNQKGEQVFRLAFRSGALDLDSCSRDGALLGCSLTADGLPLHFFIQTVRPKDTVMCYRVRWEEAAPGRAVEHAMFLGDAAAHWYGGAEMRTQHWPIRLDGQQEPQPFVTSDVYSSDAAFGGILERYWLSSRAAAIKVNDSVPFHLGWNSTERSLRLQARYHDTPYKPPAGRAAAPELSYRVCVGSDVTSIHKYMVRRYFNKPSRVPAPEAFRDPIWSTWALYGRAVDQDKVLRFAQQIRLHHFNSSHLEIDDMYTPAYGDFDFDEVKFPNASDMFRRLRDAGFRVTLWVHPFVNYNSSRFGEGVERELFVREPTGRLPALVRWWNGIGAVLDFTHPKARDWFQGHLRRLRSRYSVASFKFDAGEVSYLPRDFSTYRPLPDPSVWSRRYTEMALPFFSLAEVRVGYQSQNISCFFRLVDRDSVWGYDLGLRSLIPAVLTVSMLGYPFILPDMVGGNAVPQRTAGGDVPERELYIRWLEVAAFMPAMQFSIPPWRYDAEVVAIAQKFAALRASLVAPLLLELAGEVTDTGDPIVRPLWWIAPGDETAHRIDSQFLIGDTLLVAPVLEPGKQERDVYLPAGKWRSYKGELFDKTPVLLTDYPVDLDEIAYFTWAS
notes: residues 80–714 (MYORGGH31)
- Km [5]: 980 ± 7 µM
